T1: cCRTAM-His (猴源CRTAM蛋白胞外区 + His标签) (猴源 (食蟹猴, cynomolgus monkey))
T1 construct: also called cCRTAM-His蛋白; 食蟹猴CRTAM
T1 chain: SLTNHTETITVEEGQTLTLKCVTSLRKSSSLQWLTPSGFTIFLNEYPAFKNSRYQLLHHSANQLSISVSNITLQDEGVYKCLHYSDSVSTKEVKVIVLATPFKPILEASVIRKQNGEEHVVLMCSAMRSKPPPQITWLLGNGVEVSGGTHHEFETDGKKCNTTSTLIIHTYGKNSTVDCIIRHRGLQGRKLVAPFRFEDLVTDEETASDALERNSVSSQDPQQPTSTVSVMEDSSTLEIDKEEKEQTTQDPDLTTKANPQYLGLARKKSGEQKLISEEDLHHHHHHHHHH

B1: HuC110-34 (antibody, V domains shown)
VH: QVQLVQSGAEVKKPGASVKVSCKASGYTFTNNDINWVKQAPGQRLEWIGWIYPRDGSTQYNEKFRGRATITVDTSASTAYMELSSLRSEDTAVYFCARGLVDYWGQGTLVTVSS
VL: DVVMTQSPDSLAVSLGERATINCRSSQSLVHSNKNTYLHWYLQKPGQPPKLLIYKVSNRFSGVPDRFSGSGSGTDFTLTISSLQAEDVAVYYCSQSTRVPWTFGGGTKLEIK
notes: also called HuC110-34-biotin; 抗CRTAM人源化抗体HuC110-34
B2: HuC94-31 (antibody, V domains shown)
VH: EVQLLESGGGLVQPGGSLRLSCAASGFTFSTSAMSWVRQAPGKGLEWVATISSGGDYTYYSDNVKGRFTISRDNSKSTLYLQMNSLRAEDTAVYYCTLGYDEADYWGQGSLLTVSS
VL: DIQMTQSPSSLSASVGDRVTITCRASQDISNYLNWYQQKPGKAPKLLIYYTSRLHSGVPSRFSGSGSGTDYTFTISSLQPEDIATYYCQQGDTFPWTFGGGTKLEIK
notes: also called HuC94-31-biotin; 抗CRTAM人源化抗体HuC94-31
B3: HuC124-42 (antibody, V domains shown)
VH: QVQLVQSGAEVKKPGSSVKVSCKASGYSFSNYWIEWVRQAPGQGLEWIGEILPGVPTIYYNAKFKDRVTFTADKSTSTAYMELSSLRSEDTAVYYCSRDPWFAYWGQGTLVTVSA
VL: EIVLTQSPATLSVSPGERATFSCRASQSIGTSLHWFQQKPGQAPRLLIKYASQSISGIPARFSGSGSGTEFTLTISSVQSEDFAVYYCQQSNNWPFTFGGGTKLEIK
notes: also called HuC124-42-biotin; 抗CRTAM人源化抗体HuC124-42

Our source for the EC50 values is patent CN115536746A (NANJING SANHOME PHARMACEUTICAL CO LTD, dated 2022).

The EC50 is the concentration needed to bring the measured effect to its halfway point.

This assay addresses T1, cCRTAM-His (猴源CRTAM蛋白胞外区 + His标签). As to the kind of experiment: ELISA, cCRTAM-His coated at 2 μg/mL. Background: An ELISA detects its analyte on a solid surface through an enzyme-linked reagent.
B1: the EC50 worked out at 8.17 ng/mL.

On to B2, for which the EC50 stood at 4.68 ng/mL.

With B3, the EC50 was 4.78 ng/mL.
